B1: DLX2684 (scFv)
scFv: EIVMTQSPSTLSASVGDRVTITCQASQSISSWLSWYQQKPGKAPKLLIYKASTLASGVPSRFSGSGSGTEFTLTISSLQPDDFATYYCQNAGGGVSIAFGQGTKLTVLGGGGGSGGGGSGGGGSGGGGSEVQLVESGGGNVQPGGSLRLSCTASGFSLSDAAMAWVRQAPGKGLEWVGIIYDSASTFYASWAKGRFTISRDNSKNTLYLQMNSLRAEDTATYYCARERNIFSGDMALWGQGTTVTVSS
notes: tested as cleared E. coli lysate; also called DLX2543_2530
B2: DLX2678 (scFv)
scFv: EIVMTQSPSTLSASVGDRVTITCQASQSIGNWLAWYQQKPGKAPKLLIYQASNLASGVPSRFSGSGSGTDFTLTISSLQPDDFATYYCQNAGGATTIAFGQGTKLTVLGGGGGSGGGGSGGGGSGGGGSEVQLVESGGGLVQPGGSLRLSCTVSGFSLSSYAMSWVRQAPGKGLEWIGIIYDSASTYYASWAKGRFTISKDTSKNTLYLQMNSLRAEDTAVYFCARERQIFSGDMDGWGQGTTVTVSS
notes: tested as cleared E. coli lysate; also called DLX2528_2548
B3: DLX2682 (scFv)
scFv: EIVMTQSPSTLSASVGDRVIITCRASQSIGNWLSWYQQKPGKAPKLLIYRASNLASGVPSRFSGSGSGAEFTLTISSLQPEDFATYYCQNTGGGINIAFGQGTKLTVLGGGGGSGGGGSGGGGSGGGGSEVQLVESGGGLVQPGGSLRLSCTVSGFSLSSYAMSWVRQAPGKGLEWIGIIYDSASTYYASWAKGRFTISKDTSKNTLYLQMNSLRAEDTAVYFCARERQIFSGDMDGWGQGTTVTVSS
notes: tested as cleared E. coli lysate; also called DLX2529_2548
B4: DLX2683 (scFv)
scFv: EIVMTQSPSTLSASVGDRVIITCRASQSIGNWLSWYQQKPGKAPKLLIYRASNLASGVPSRFSGSGSGAEFTLTISSLQPEDFATYYCQNTGGGINIAFGQGTKLTVLGGGGGSGGGGSGGGGSGGGGSEVQLVESGGGLVQPGGSLRLSCTVSGFSLSSYAMSWVRQAPGKGLEWVGIIYDSASTYYASWAKGRFTISKDTSKNTVYLQMNSLRAEDTAVYYCARERAIFSGDFDYWGQGTLVTVSS
notes: tested as cleared E. coli lysate; also called DLX2529_2585
B5: DLX2695 (scFv)
scFv: ADIVMTQSPSTLSASVGDRVTITCQASQSISSYLSWYQQKPGKAPKLLIYRASTLASGVPSRFSGSGSGAEFTLTISSLQPDDFATYYCQNTGGGINIAFGQGTKLEIKRGGGGSGGGGSGGGGSGGGGSEVQLVESGGGLVQPGGSLRLSCTVSGFSLSSYAMSWVRQAPGKGLEWVGIIYDSASTYYASWAKGRFTISKDTSKNTVYLQMNSLRAEDTAVYYCARERAIFSGDFDYWGQGTLVTVSS
notes: tested as cleared E. coli lysate; also called DLX2547_2585
B6: DLX2691 (scFv)
scFv: ADIVMTQSPSTLSASVGDRVTITCQASQSISSYLSWYQQKPGKAPKLLIYKASTLASGVPSRFSGSGSGTDFTLTISSLQPEDFATYYCQNAGGGINIAFGQGTKVEIKRGGGGSGGGGSGGGGSGGGGSEVQLVESGGGLVQPGGSLRLSCTVSGFSLSSYAMSWVRQAPGKGLEWVGIIYDSASTYYASWAKGRFTISKDTSKNTVYLQMNSLRAEDTAVYYCARERAIFSGDFDYWGQGTLVTVSS
notes: tested as cleared E. coli lysate; also called DLX2544_2585
B7: DLX2694 (scFv)
scFv: ADIVMTQSPSTLSASVGDRVTITCQASQSISSYLSWYQQKPGKAPKLLIYRASTLASGVPSRFSGSGSGAEFTLTISSLQPDDFATYYCQNTGGGINIAFGQGTKLEIKRGGGGSGGGGSGGGGSGGGGSEVQLVESGGGLVQPGGSLRLSCTVSGFSLSSYAMSWVRQAPGKGLEWIGIIYDSASTYYASWAKGRFTISKDTSKNTLYLQMNSLRAEDTAVYFCARERQIFSGDMDGWGQGTTVTVSS
notes: tested as cleared E. coli lysate; also called DLX2547_2548
B8: DLX2689 (scFv)
scFv: ADIVMTQSPSTLSASVGDRVTITCQASQSISSYLSWYQQKPGKAPKLLIYKASTLASGVPSRFSGSGSGTDFTLTISSLQPEDFATYYCQNAGGGINIAFGQGTKVEIKRGGGGSGGGGSGGGGSGGGGSEVQLVESGGGNVQPGGSLRLSCTASGFSLSNSAMAWVRQAPGKGLEWVGIIYDSASTYYASWAKGRFTISRDNSKNTVYLQMNSLRAEDTATYYCARERAIFSGDFALWGQGTLVTVSS
notes: tested as cleared E. coli lysate; also called DLX2544_2531
B9: DLX2692 (scFv)
scFv: ADIVMTQSPSTLSASVGDRVTITCQASQSISSYLSWYQQKPGKAPKLLIYRASTLASGVPSRFSGSGSGAEFTLTISSLQPDDFATYYCQNTGGGINIAFGQGTKLEIKRGGGGSGGGGSGGGGSGGGGSEVQLVESGGGNVQPGGSLRLSCTASGFSLSDAAMAWVRQAPGKGLEWVGIIYDSASTFYASWAKGRFTISRDNSKNTLYLQMNSLRAEDTATYYCARERNIFSGDMALWGQGTTVTVSS
notes: tested as cleared E. coli lysate; also called DLX2547_2530
B10: DLX2687 (scFv)
scFv: EIVMTQSPSTLSASVGDRVTITCQASQSISSWLSWYQQKPGKAPKLLIYKASTLASGVPSRFSGSGSGTEFTLTISSLQPDDFATYYCQNAGGGVSIAFGQGTKLTVLGGGGGSGGGGSGGGGSGGGGSEVQLVESGGGLVQPGGSLRLSCTVSGFSLSSYAMSWVRQAPGKGLEWVGIIYDSASTYYASWAKGRFTISKDTSKNTVYLQMNSLRAEDTAVYYCARERAIFSGDFDYWGQGTLVTVSS
notes: tested as cleared E. coli lysate; also called DLX2543_2585
B11: DLX2677 (scFv)
scFv: EIVMTQSPSTLSASVGDRVTITCQASQSIGNWLAWYQQKPGKAPKLLIYQASNLASGVPSRFSGSGSGTDFTLTISSLQPDDFATYYCQNAGGATTIAFGQGTKLTVLGGGGGSGGGGSGGGGSGGGGSEVQLVESGGGNVQPGGSLRLSCTASGFSLSNSAMAWVRQAPGKGLEWVGIIYDSASTYYASWAKGRFTISRDNSKNTVYLQMNSLRAEDTATYYCARERAIFSGDFALWGQGTLVTVSS
notes: tested as cleared E. coli lysate; also called DLX2528_2531
B12: DLX2679 (scFv)
scFv: EIVMTQSPSTLSASVGDRVTITCQASQSIGNWLAWYQQKPGKAPKLLIYQASNLASGVPSRFSGSGSGTDFTLTISSLQPDDFATYYCQNAGGATTIAFGQGTKLTVLGGGGGSGGGGSGGGGSGGGGSEVQLVESGGGLVQPGGSLRLSCTVSGFSLSSYAMSWVRQAPGKGLEWVGIIYDSASTYYASWAKGRFTISKDTSKNTVYLQMNSLRAEDTAVYYCARERAIFSGDFDYWGQGTLVTVSS
notes: tested as cleared E. coli lysate; also called DLX2528_2585
B13: DLX2676 (scFv)
scFv: EIVMTQSPSTLSASVGDRVTITCQASQSIGNWLAWYQQKPGKAPKLLIYQASNLASGVPSRFSGSGSGTDFTLTISSLQPDDFATYYCQNAGGATTIAFGQGTKLTVLGGGGGSGGGGSGGGGSGGGGSEVQLVESGGGNVQPGGSLRLSCTASGFSLSDAAMAWVRQAPGKGLEWVGIIYDSASTFYASWAKGRFTISRDNSKNTLYLQMNSLRAEDTATYYCARERNIFSGDMALWGQGTTVTVSS
notes: tested as cleared E. coli lysate; also called DLX2528_2530
B14: DLX2685 (scFv)
scFv: EIVMTQSPSTLSASVGDRVTITCQASQSISSWLSWYQQKPGKAPKLLIYKASTLASGVPSRFSGSGSGTEFTLTISSLQPDDFATYYCQNAGGGVSIAFGQGTKLTVLGGGGGSGGGGSGGGGSGGGGSEVQLVESGGGNVQPGGSLRLSCTASGFSLSNSAMAWVRQAPGKGLEWVGIIYDSASTYYASWAKGRFTISRDNSKNTVYLQMNSLRAEDTATYYCARERAIFSGDFALWGQGTLVTVSS
notes: tested as cleared E. coli lysate; also called DLX2543_2531
B15: DLX2680 (scFv)
scFv: EIVMTQSPSTLSASVGDRVIITCRASQSIGNWLSWYQQKPGKAPKLLIYRASNLASGVPSRFSGSGSGAEFTLTISSLQPEDFATYYCQNTGGGINIAFGQGTKLTVLGGGGGSGGGGSGGGGSGGGGSEVQLVESGGGNVQPGGSLRLSCTASGFSLSDAAMAWVRQAPGKGLEWVGIIYDSASTFYASWAKGRFTISRDNSKNTLYLQMNSLRAEDTATYYCARERNIFSGDMALWGQGTTVTVSS
notes: tested as cleared E. coli lysate; also called DLX2529_2530
B16: DLX2690 (scFv)
scFv: ADIVMTQSPSTLSASVGDRVTITCQASQSISSYLSWYQQKPGKAPKLLIYKASTLASGVPSRFSGSGSGTDFTLTISSLQPEDFATYYCQNAGGGINIAFGQGTKVEIKRGGGGSGGGGSGGGGSGGGGSEVQLVESGGGLVQPGGSLRLSCTVSGFSLSSYAMSWVRQAPGKGLEWIGIIYDSASTYYASWAKGRFTISKDTSKNTLYLQMNSLRAEDTAVYFCARERQIFSGDMDGWGQGTTVTVSS
notes: tested as cleared E. coli lysate; also called DLX2544_2548
B17: DLX2464 (scFv)
scFv: EIVMTQSPSTLSASVGDRVIITCQASQSIDNWLSWYQQKPGKAPKLLIYRASTLASGVPSRFSGSGSGAEFTLTISSLQPDDFATYYCQNTGGGVSIAFGQGTKLTVLGGGGGSGGGGSGGGGSGGGGSEVQLVESGGGLVQPGGSLRLSCTASGFSLSSAAMAWVRQAPGKGLEWVGIIYDSASTYYASWAKGRFTISRDTSKNTVYLQMNSLRAEDTAVYYCARERQIFSGDMAGWGQGTLVTVSS
B18: DLX2465 (scFv)
scFv: EIVMTQSPSTLSASVGDRVIITCQASQSIDNWLSWYQQKPGKAPKLLIYRASTLASGVPSRFSGSGSGAEFTLTISSLQPDDFATYYCQNTGGGVSIAFGQGTKLTVLGGGGGSGGGGSGGGGSGGGGSEVQLVESGGGLVQPGGSLRLSCTASGFSLSSAAMAWVRQAPGKGLEWVGIIYDSASTYYASWAKGRFTISRDTSKNTVYLQMNSLRAEDTAVYYCARERNIFSGDMDLWGQGTLVTVSS
B19: DLX2466 (scFv)
scFv: EIVMTQSPSTLSASVGDRVIITCQASQSIGKYLSWYQQKPGKAPKLLIYRASTLASGVPSRFSGSGSGAEFTLTISSLQPDDFATYYCQNAGGGVSIAFGQGTKLTVLGGGGGSGGGGSGGGGSGGGGSEVQLVESGGGLVQPGGSLRLSCTASGFSLSSDAMAWVRQAPGKGLEWVGIIYDSASTYYASWAKGRFTISRDTSKNTVYLQMNSLRAEDTAVYYCARERNIFSGDMAGWGQGTLVTVSS

target: T1, recombinant human IL-1 beta (human, UniProt P01584 117-269); experiment: ELISA, cleared E. coli lysate on coated rhIL-1 beta
T1 construct: Bought protein; also called rhIL-1 beta; rhIL1-beta
Protocol: The resulting scFv mutants are expressed in 96-well format in 1 ml cultures in E. coli BL21 (DE3) (Novagen, USA, cat. no. 69450-3). […] Cells were lysed in lysis buffer (1 mM EDTA, 0.1 mg/ml lysozyme, PBS pH 7.2) in a 96-well format by freezing and subsequent thawing. Derived crude extracts were cleared by centrifugation. Supernatants were added to wells of a microtiterplate coated with 50 ng/ml of rhIL-1 beta (Peprotech) per well. After washing, bound scFvs are detected by ProteinL-HRP and binding to rhIL-1 beta quantified by BM Blue POD Substrate (Roche Applied Science).

Binder | binding result
B1 | binds
B2 | binds
B3 | binds
B4 | binds
B5 | binds
B6 | binds
B7 | binds
B8 | binds
B9 | binds
B10 | binds
B11 | binds
B12 | binds
B13 | binds
B14 | binds
B15 | binds
B16 | binds

target: T1, recombinant human IL-1 beta; experiment: cell-based or functional assay

Binder | IC50 of IL-1 beta-induced IL-6 release from human dermal fibroblasts [pM]
B17 | 4
B18 | 4
B19 | 300

Source: patent publication US20140134183A1 (CELL MEDICA SWITZERLAND, published 2014)
